Reference: article PMC10516921 (Nature Communications, 2023)

Experiments:
[1] = target: human ferroptosis suppressor protein 1, full length, recombinant from E. coli (human) (UniProt Q9BRQ8); assay: dynamic light scattering; DynaPro NanoStar, 8 °C or 20 °C, 5-10 μM protein in buffer B; also with NADH
[2] = target: the molecule itself; assay: SEC + other: dynamic light scattering; in solution; the sentence points to Supplementary Fig. 4 as a whole (gel filtration in panels a, b; DLS in panel c)
[3] = target: the molecule itself; assay: SEC; Superdex 200 Increase 10/300 GL, buffer B (20 mM Tris-HCl pH 8.0, 150 mM NaCl), 0.5 ml/min, 20 °C, molecular weight markers

Row | Molecule | stoichiometry N [2] | stoichiometry N [3] | other results
1 | human ferroptosis suppressor protein 1, full length, recombinant from E. coli (from UniProt Q9BRQ8 1-373) (enzyme) |  |  | stoichiometry N [1]: 2
2 | Gallus gallus FSP1 residues 1-318 (cFSP1^ΔCTD) (domain or fragment, Gallus gallus (chicken), UniProt E1BR24 1-318, looked up, FSP1 (AIFM2) of chicken (Gallus gallus), residues 1-318; lacks the C-terminal domain (319-373); source: E. coli BL21 (DE3), purified (Ni-Chelating Sepharose, Superdex 200 Increase)) MGSRLSVDDSVRVVIVGGGFGGIAAASQLKSWAVPFVLVDMRDAFHHNVAALRASVESGFARKTFISYSVTFGDSFRQGKVVGIDPERQQVLLSDGEELHYSHLILATGSDGPFPGKFNKVIDMESAIQTYEDMVKEIEKSERILVVGGGAAGVEMAAEIKTEYPAKEVTLIHSKIALADVELLQSVRQEVKEILLRKGVRLLLSEKVSNVENLTTNQFQKDMVVRTEKGTEVVVDMVVLCTGIKINSSAYATAFGDKLASNGALNVNKHLQLEGYDNIYAIGDCANLKEPKMAYHAELHANIVVSNIINSLTHKPLK | 2 |  | 
3 | human FSP1 residues 1-316 (hFSP1^ΔCTD), recombinant from E. coli (domain or fragment, UniProt Q9BRQ8 1-316, looked up, FSP1 (AIFM2), human, residues 1-316; lacks the C-terminal domain; source: E. coli BL21 (DE3), purified (Ni-Chelating Sepharose, Ulp1 cleavage, Superdex 200 Increase); not shown: His6, N-terminal, cleaved; SUMO, N-terminal, cleaved) MGSQVSVESGALHVVIVGGGFGGIAAASQLQALNVPFMLVDMKDSFHHNVAALRASVETGFAKKTFISYSVTFKDNFRQGLVVGIDLKNQMVLLQGGEALPFSHLILATGSTGPFPGKFNEVSSQQAAIQAYEDMVRQVQRSRFIVVVGGGSAGVEMAAEIKTEYPEKEVTLIHSQVALADKELLPSVRQEVKEILLRKGVQLLLSERVSNLEELPLNEYREYIKVQTDKGTEVATNLVILCTGIKINSSAYRKAFESRLASSGALRVNEHLQVEGHSNVYAIGDCADVRTPKMAYLAGLHANIAVANIVNSVKQR | 2 |  | 
4 | Gallus gallus FSP1 residues 12-373 (cFSP1^ΔN), not methylated (domain or fragment, Gallus gallus (chicken), UniProt E1BR24 12-373, looked up, FSP1 (AIFM2) of chicken (Gallus gallus), residues 12-373; lacks the N-terminal myristoylation motif (residues 1-11); Same limits as the crystallized, methylated protein; also called native cFSP1^ΔN; source: E. coli BL21 (DE3), purified (Ni-Chelating Sepharose, Superdex 200 Increase)) RVVIVGGGFGGIAAASQLKSWAVPFVLVDMRDAFHHNVAALRASVESGFARKTFISYSVTFGDSFRQGKVVGIDPERQQVLLSDGEELHYSHLILATGSDGPFPGKFNKVIDMESAIQTYEDMVKEIEKSERILVVGGGAAGVEMAAEIKTEYPAKEVTLIHSKIALADVELLQSVRQEVKEILLRKGVRLLLSEKVSNVENLTTNQFQKDMVVRTEKGTEVVVDMVVLCTGIKINSSAYATAFGDKLASNGALNVNKHLQLEGYDNIYAIGDCANLKEPKMAYHAELHANIVVSNIINSLTHKPLKTYQPGSLTFLLSMGKNDGVGQVKGYYVGHLLVTIAKSRDLFVSKSWKTMGQPMPS |  | 2 | 
5 | Gallus gallus FSP1 residues 12-373 (cFSP1^ΔN), reductively methylated (domain or fragment, Gallus gallus (chicken), UniProt E1BR24 12-373, looked up, surface lysine residues modified by reductive methylation (formaldehyde and dimethylamine-borane complex), FSP1 (AIFM2) of chicken (Gallus gallus), residues 12-373; lacks the N-terminal myristoylation motif (residues 1-11); Crystallized substrate-free and with CoQ1; A selenomethionine derivative was used for phasing; also called methylated cFSP1^ΔN; source: E. coli BL21 (DE3), purified (Ni-chelating resin, HiTrap Heparin, reductive methylation, Superdex 200 Increase)) RVVIVGGGFGGIAAASQLKSWAVPFVLVDMRDAFHHNVAALRASVESGFARKTFISYSVTFGDSFRQGKVVGIDPERQQVLLSDGEELHYSHLILATGSDGPFPGKFNKVIDMESAIQTYEDMVKEIEKSERILVVGGGAAGVEMAAEIKTEYPAKEVTLIHSKIALADVELLQSVRQEVKEILLRKGVRLLLSEKVSNVENLTTNQFQKDMVVRTEKGTEVVVDMVVLCTGIKINSSAYATAFGDKLASNGALNVNKHLQLEGYDNIYAIGDCANLKEPKMAYHAELHANIVVSNIINSLTHKPLKTYQPGSLTFLLSMGKNDGVGQVKGYYVGHLLVTIAKSRDLFVSKSWKTMGQPMPS |  | 2 | 
6 | Gallus gallus ferroptosis suppressor protein 1, full length (enzyme, Gallus gallus (chicken), UniProt E1BR24 1-373, looked up, Ferroptosis suppressor protein 1 (FSP1, AIFM2) of chicken (Gallus gallus), full length, residues 1-373; gene optimized and synthesized, in pET-22b; also called cFSP1; chicken FSP1; source: E. coli BL21 (DE3), purified (Ni-Chelating Sepharose, Superdex 200 Increase)) MGSRLSVDDSVRVVIVGGGFGGIAAASQLKSWAVPFVLVDMRDAFHHNVAALRASVESGFARKTFISYSVTFGDSFRQGKVVGIDPERQQVLLSDGEELHYSHLILATGSDGPFPGKFNKVIDMESAIQTYEDMVKEIEKSERILVVGGGAAGVEMAAEIKTEYPAKEVTLIHSKIALADVELLQSVRQEVKEILLRKGVRLLLSEKVSNVENLTTNQFQKDMVVRTEKGTEVVVDMVVLCTGIKINSSAYATAFGDKLASNGALNVNKHLQLEGYDNIYAIGDCANLKEPKMAYHAELHANIVVSNIINSLTHKPLKTYQPGSLTFLLSMGKNDGVGQVKGYYVGHLLVTIAKSRDLFVSKSWKTMGQPMPS |  | 2 | 
